{
  "source": "paper PMC8832513",
  "molecular_target": "RXFP1 construct pVL-11 (FLAG-eGFP-M82-S707-Avi) (human) (UniProt Q9HBX9)",
  "sequence (Q9HBX9 82-707)": "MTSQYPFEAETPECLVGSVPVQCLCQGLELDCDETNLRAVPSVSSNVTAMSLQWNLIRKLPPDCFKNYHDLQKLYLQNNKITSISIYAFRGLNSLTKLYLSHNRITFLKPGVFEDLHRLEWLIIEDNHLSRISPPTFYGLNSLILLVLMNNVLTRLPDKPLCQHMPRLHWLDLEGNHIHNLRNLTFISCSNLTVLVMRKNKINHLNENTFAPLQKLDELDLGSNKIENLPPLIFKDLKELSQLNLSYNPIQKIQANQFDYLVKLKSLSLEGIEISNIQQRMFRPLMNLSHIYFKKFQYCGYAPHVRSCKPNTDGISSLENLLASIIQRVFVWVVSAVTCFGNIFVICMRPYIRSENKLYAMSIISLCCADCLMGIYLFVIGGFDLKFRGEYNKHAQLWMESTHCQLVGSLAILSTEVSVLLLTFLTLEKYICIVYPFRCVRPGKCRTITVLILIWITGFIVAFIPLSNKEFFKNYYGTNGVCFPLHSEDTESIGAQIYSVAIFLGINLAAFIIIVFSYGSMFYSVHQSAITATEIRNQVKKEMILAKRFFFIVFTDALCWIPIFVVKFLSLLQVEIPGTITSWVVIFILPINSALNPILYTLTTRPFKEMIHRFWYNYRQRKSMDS",
  "experiment": "SPR; receptor constructs captured via biotinylated Avi-tag on an SA chip (3000-5000 RU), Biacore T200, 20°C; running buffer 20 mM HEPES pH 7.5, 150 mM NaCl, 0.01% BSA, 0.1% DDM, 0.01% CHS; relaxin injected at 0.41-100 nM; kinetic fits; triplicates",
  "note": "pKd: −log10 of the molar value.",
  "data": [
    {"substance": "Relaxin H2 (human) (ligand)", "values": [
      {"measurement": "pKd", "value": 7.70}
    ]}
  ]
}
